Measured values taken from US20240293459A1 (published 2024).

What was measured:
Assay in all cases: multimer staining
[1] = target: T1, SARS-CoV-2 NSP13 helicase; peptide NSP13-400 peptide on HLA-A*24:02 (human)
T1 peptide: VYIGDPAQL

[2] = target: SARS-CoV-2 NSP13 helicase; peptide NSP13-448 peptide on HLA-A*01:01 (human)
[3] = target: T2, SARS-CoV-2 NSP13 helicase; peptide NSP13-242 peptide on HLA-A*02:01 (human)
T2 peptide: TLVPQEHYV

B1: NSP13-400 TCR (TCR, V domains shown)
Valpha: RKEVEQDPGPFNVPEGATVAFNCTYSNSASQSFFWYRQDCRKEPKLLMSVYSSGNEDGRFTAQLNRASQYISLLIRDSKLSDSATYLCVVKDSWGKLQFGAGTQVVVTP
Vbeta: DARVTQTPRHKVTEMGQEVTMRCQPILGHNTVFWYRQTMMQGLELLAYFRNRAPLDDSGMPKDRFSAEMPDATLATLKIQPSEPRDSAVYFCASGPSGGWNTIYFGEGSWLTVV
- binding result [1]: recognises

B2: NSP13-448 TCR (TCR, V domains shown)
Valpha: AQSVTQLGSHVSVSEGALVLLRCNYSSSVPPYLFWYVQYPNQGLQLLLKYTSAATLVKGINGFEAEFKKSETSFHLTKPSAHMSDAAEYFCAVSNSGGGADGLTFGKGTHLIIQP
Vbeta: DGGITQSPKYLFRKEGQNVTLSCEQNLNHDAMYWYRQDPGQGLRLIYYSQIVNDFQKGDIAEGYSVSREKKESFPLTVTSAQKNPTAFYLCASSIMAGGHGELFFGEGSRLTVL
- binding result [2]: recognises

B3: NSP13-242 TCR (TCR, V domains shown)
Valpha: AQTVTQSQPEMSVQEAETVTLSCTYDTSENNYYLFWYKQPPSRQMILVIRQEAYKQQNATENRFSVNFQKAAKSFSLKISDSQLGDTAMYFCAFMNSNNARLMFGDGTQLVVKP
Vbeta: DAGITQSPRYKITETGRQVTLMCHQTWSHSYMFWYRQDLGHGLRLIYYSAAADITDKGEVPDGYVVSRSKTENFPLTLESATRSQTSVYFCASSPGSVPGGYTFGSGTRLTVV
- binding result [3]: recognises
